For 53 substances, Peptide exchange results are on record in patent US10738094B2, “Peptides and combination of peptides for use in immunotherapy against ovarian cancer and other cancers” (immatics biotechnologies GmbH, priority 2015, dated 2020).

The target in this test is HLA-A*02:01 (Homo sapiens, UniProt P04439, D140Y/D185E/D98H/E176V/E277Q/G131W/G231S/I119V/I121R/I166T/I218V/L300P/L318F/N151K/N90K/P208A/P217A/Q86G/Q94H/R138H/R169H/T345S). The experiment in a line: MHC binding assay (UV-ligand exchange, beta2m ELISA). Conditions: binding to HLA-A*02:01 ranged by peptide exchange yield (UV-ligand exchange, β2m ELISA). The method in brief: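 UV-cleavable ligand in peptide-MHC complexes was exchanged for test peptide. Exchange yield came from an ELISA on streptavidin-captured complexes diluted 100 fold, detecting β2m with HRP anti-β2m (2 ug/ml, 1 h, 37° C.), TMB, A450.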
With “133 (KVLSNIHTV; listed as Homo sapiens) [compound 133]”, the Peptide exchange result is on record as ““++” (≥20% = ++)”.

Consider “194 (ALPLFVITV; listed as Homo sapiens) [compound 194]”, for which the Peptide exchange entry is ““+++” (≥50 = +++)”.

Regarding “86 (NLIGKIENV; listed as Homo sapiens) [compound 86]”, the Peptide exchange result was ““+++” (≥50 = +++)”.

Turning to “40 (TLLVKVFSV; listed as Homo sapiens) [compound 40]”, the Peptide exchange entry was ““+++” (≥50 = +++)”.

In the case of “280 (VLPDPEVLEAV; listed as Homo sapiens) [compound 280]”, the Peptide exchange entry was ““+++” (≥50 = +++)”.

As for “9 (GAAKDLPGV; listed as Homo sapiens) [compound 9]”, the Peptide exchange result is listed as ““++” (≥20% = ++)”.

As for “546 (VMIAGKVAVV; listed as Homo sapiens) [compound 546]”, the Peptide exchange result is ““+++” (≥50 = +++)”.

For “172 (VLYSYTIITV; listed as Homo sapiens) [compound 172]”, the Peptide exchange result is ““++” (≥20% = ++)”.

Turning to “444 (GLLRDEALAEV; listed as Homo sapiens) [compound 444]”, the Peptide exchange entry is ““+++” (≥50 = +++)”.

On to “475 (LLLNEEALAQI; listed as Homo sapiens) [compound 475]”, for which the Peptide exchange entry is listed as ““+++” (≥50 = +++)”.

Consider “564 (TVTNAVVTV; listed as Homo sapiens) [compound 564]”, for which the Peptide exchange result is ““+++” (≥50 = +++)”.

For the substance “332 (YLISELEAA; listed as Homo sapiens) [compound 332]”, the Peptide exchange result was ““+++” (≥50 = +++)”.

“39 (SVAPNLPAV; listed as Homo sapiens) [compound 39]”: the Peptide exchange entry was ““+++” (≥50 = +++)”.

For “225 (SLLKVLPAL; listed as Homo sapiens) [compound 225]”, the Peptide exchange entry was ““+++” (≥50 = +++)”.

“340 (ALLSMTFPL; listed as Homo sapiens) [compound 340]”: the Peptide exchange entry is on record as ““++++” (≥75% = ++++)”.

As for “44 (ILDPISSGFLL; listed as Homo sapiens) [compound 44]”, the Peptide exchange result is ““++” (≥20% = ++)”.

With “610 (LLAPTPYIIGV; listed as Homo sapiens) [compound 610]”, the Peptide exchange result is ““+++” (≥50 = +++)”.

As for “528 (SVAEGRALMSV; listed as Homo sapiens) [compound 528]”, the Peptide exchange entry is ““+++” (≥50 = +++)”.

On to “59 (IMEDIILTL; listed as Homo sapiens) [compound 59]”, for which the Peptide exchange entry is reported as ““+++” (≥50 = +++)”.

As to “596 (ALLDQTKTLAESAL; listed as Homo sapiens) [compound 596]”, the Peptide exchange result is listed as ““+++” (≥50 = +++)”.

As to “453 (KLLEATSAV; listed as Homo sapiens) [compound 453]”, the Peptide exchange entry is ““++” (≥20% = ++)”.

Turning to “115 (AIAGAGILYGV; listed as Homo sapiens) [compound 115]”, the Peptide exchange result is recorded as ““++” (≥20% = ++)”.

As for “524 (ALIENLTHQI; listed as Homo sapiens) [compound 524]”, the Peptide exchange result is ““++” (≥20% = ++)”.

With “29 (KMLGIPISNILMV; listed as Homo sapiens) [compound 29]”, the Peptide exchange entry is ““+++” (≥50 = +++)”.

Regarding “523 (YQIPRTFTL; listed as Homo sapiens) [compound 523]”, the Peptide exchange result is on record as ““++” (≥20% = ++)”.

Take “557 (KLYDDMIRL; listed as Homo sapiens) [compound 557]”: the Peptide exchange entry was ““+++” (≥50 = +++)”.

Consider “575 (YLISQVEGHQV; listed as Homo sapiens) [compound 575]”, for which the Peptide exchange result is recorded as ““+++” (≥50 = +++)”.

On to “573 (ILVANAIVGV; listed as Homo sapiens) [compound 573]”, for which the Peptide exchange entry is ““+++” (≥50 = +++)”.

Take “461 (VMFRTPLASV; listed as Homo sapiens) [compound 461]”: the Peptide exchange result is listed as ““++” (≥20% = ++)”.

Regarding “613 (RLLPPGAVVAV; listed as Homo sapiens) [compound 613]”, the Peptide exchange result is given as ““+++” (≥50 = +++)”.

For the substance “175 (YLFENISQL; listed as Homo sapiens) [compound 175]”, the Peptide exchange entry is given as ““+++” (≥50 = +++)”.

On to “462 (KLAKQPETV; listed as Homo sapiens) [compound 462]”, for which the Peptide exchange result is ““+++” (≥50 = +++)”.

For “585 (ALWDLAADKQTL; listed as Homo sapiens) [compound 585]”, the Peptide exchange entry is ““++++” (≥75% = ++++)”.

As for “25 (FLPDEPYIKV; listed as Homo sapiens) [compound 25]”, the Peptide exchange result is listed as ““+++” (≥50 = +++)”.

With “147 (SLLEAVSFL; listed as Homo sapiens) [compound 147]”, the Peptide exchange entry was ““+++” (≥50 = +++)”.

With “526 (RLAEVGQYEQV; listed as Homo sapiens) [compound 526]”, the Peptide exchange entry is recorded as ““++” (≥20% = ++)”.

In the case of “510 (KLYSVVSQL; listed as Homo sapiens) [compound 510]”, the Peptide exchange entry is on record as ““++” (≥20% = ++)”.

In the case of “171 (LLLPLQILL; listed as Homo sapiens) [compound 171]”, the Peptide exchange result is given as ““+++” (≥50 = +++)”.

For “399 (YLFEPLYHV; listed as Homo sapiens) [compound 399]”, the Peptide exchange result is recorded as ““+++” (≥50 = +++)”.

As to “588 (SLLPLSHLV; listed as Homo sapiens) [compound 588]”, the Peptide exchange entry is recorded as ““+++” (≥50 = +++)”.

In the case of “32 (KLDDLTQDLTV; listed as Homo sapiens) [compound 32]”, the Peptide exchange entry is ““++” (≥20% = ++)”.

As for “437 (SMAPGLVIQAV; listed as Homo sapiens) [compound 437]”, the Peptide exchange result is reported as ““+++” (≥50 = +++)”.

“240 (ILLEQAFYL; listed as Homo sapiens) [compound 240]”: the Peptide exchange entry is recorded as ““+++” (≥50 = +++)”.

For “635 (SLDSTLHAV; listed as Homo sapiens) [compound 635]”, the Peptide exchange result is given as ““+++” (≥50 = +++)”.

“302 (ALLQEGEVYSA; listed as Homo sapiens) [compound 302]”: the Peptide exchange result was ““+++” (≥50 = +++)”.

For “300 (ALLGQTFSL; listed as Homo sapiens) [compound 300]”, the Peptide exchange result was ““+++” (≥50 = +++)”.

As to “289 (VLLEIEDLQV; listed as Homo sapiens) [compound 289]”, the Peptide exchange result was ““++++” (≥75% = ++++)”.

“402 (VLFSGALLGL; listed as Homo sapiens) [compound 402]”: the Peptide exchange entry is listed as ““++” (≥20% = ++)”.

Regarding “412 (YLDDLNEGVYI; listed as Homo sapiens) [compound 412]”, the Peptide exchange entry is recorded as ““++” (≥20% = ++)”.

As to “6 (VLVSDGVHSV; listed as Homo sapiens) [compound 6]”, the Peptide exchange entry is given as ““+++” (≥50 = +++)”.

For the substance “519 (GLLHLTLLL; listed as Homo sapiens) [compound 519]”, the Peptide exchange entry is ““+++” (≥50 = +++)”.

Regarding “264 (SLQEQLHSV; listed as Homo sapiens) [compound 264]”, the Peptide exchange result was ““+++” (≥50 = +++)”.

Regarding “325 (FIMPATVADATAV; listed as Homo sapiens) [compound 325]”, the Peptide exchange result was ““+++” (≥50 = +++)”.
